The record followed here is patent CN116926038A, “一种TrkA的抗原表位肽及其应用” (Guangdong HEC Pharmaceutical Co Ltd, priority 2022, dated 2023).

Ends that are not written are not given here.

The target in experiment [1] is T1, Human-TrKB (Homo sapiens, UniProt Q16620).
T1 construct: purchased Sino Biological 10047-H08H
Put plainly: ELISA binding of serum of peptide-immunised mice to Human-TrKB (Example 18). Particulars: serum dilutions 1:50 to 1:6400; blank serum as control.

The target of experiment [2] is T2, Human-TrKC (Homo sapiens, UniProt Q16288).
T2 construct: purchased Sino Biological 10048-H08H
Put plainly: ELISA binding of serum of peptide-immunised mice to Human-TrKC (Example 18). Particulars: serum dilutions 1:50 to 1:6400; blank serum as control. (In general: An ELISA detects its analyte on a solid surface through an enzyme-linked reagent.)

Experiment [3] concerns the target T3, Human-P75 (Homo sapiens, UniProt P08138).
T3 construct: purchased Sino Biological 13184-H08H
T3 sequence (P08138 29-250 limits assumed): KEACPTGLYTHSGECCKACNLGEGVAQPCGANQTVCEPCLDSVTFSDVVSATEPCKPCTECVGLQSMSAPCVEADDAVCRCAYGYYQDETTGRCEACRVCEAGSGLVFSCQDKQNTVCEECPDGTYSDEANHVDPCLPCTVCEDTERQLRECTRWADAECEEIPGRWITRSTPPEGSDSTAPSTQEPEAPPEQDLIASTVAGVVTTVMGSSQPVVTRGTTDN
Put plainly: ELISA binding of serum of peptide-immunised mice to Human-P75 (Example 18). Particulars: serum dilutions 1:50 to 1:6400; blank serum as control.

Experiment [4] has as its target binding of Human-TrKA receptor and its ligand Human-NGF (Human-TrKA受体与其配体Human-NGF结合) (Homo sapiens, UniProt P04629). Put plainly: ELISA blocking of Human-TrKA/Human-NGF binding by serum of peptide-immunised rabbits (Example 19). Particulars: 300 μg each time.

binding of Human-TrKA receptor and its ligand Human-NGF (Human-TrKA受体与其配体Human-NGF结合), sequence (P04629 33-796): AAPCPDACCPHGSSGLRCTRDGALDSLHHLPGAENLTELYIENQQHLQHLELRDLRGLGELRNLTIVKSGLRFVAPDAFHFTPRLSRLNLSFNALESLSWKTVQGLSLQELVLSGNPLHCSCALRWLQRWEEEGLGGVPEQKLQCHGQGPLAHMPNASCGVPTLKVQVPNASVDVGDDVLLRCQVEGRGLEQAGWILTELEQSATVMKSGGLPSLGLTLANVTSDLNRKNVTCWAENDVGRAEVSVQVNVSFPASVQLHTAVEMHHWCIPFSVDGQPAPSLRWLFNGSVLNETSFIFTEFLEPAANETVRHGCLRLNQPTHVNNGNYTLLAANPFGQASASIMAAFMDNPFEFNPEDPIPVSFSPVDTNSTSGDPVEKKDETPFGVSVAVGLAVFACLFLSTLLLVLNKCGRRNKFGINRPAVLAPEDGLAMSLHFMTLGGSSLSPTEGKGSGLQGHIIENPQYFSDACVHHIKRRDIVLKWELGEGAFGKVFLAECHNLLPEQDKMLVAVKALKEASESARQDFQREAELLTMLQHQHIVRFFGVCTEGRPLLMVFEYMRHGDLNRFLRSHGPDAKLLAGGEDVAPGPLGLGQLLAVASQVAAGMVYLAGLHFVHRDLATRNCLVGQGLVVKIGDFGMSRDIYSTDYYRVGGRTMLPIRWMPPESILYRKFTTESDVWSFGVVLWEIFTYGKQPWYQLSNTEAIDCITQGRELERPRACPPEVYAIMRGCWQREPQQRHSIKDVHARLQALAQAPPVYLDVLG
T2 sequence (Q16288 32-429 limits assumed): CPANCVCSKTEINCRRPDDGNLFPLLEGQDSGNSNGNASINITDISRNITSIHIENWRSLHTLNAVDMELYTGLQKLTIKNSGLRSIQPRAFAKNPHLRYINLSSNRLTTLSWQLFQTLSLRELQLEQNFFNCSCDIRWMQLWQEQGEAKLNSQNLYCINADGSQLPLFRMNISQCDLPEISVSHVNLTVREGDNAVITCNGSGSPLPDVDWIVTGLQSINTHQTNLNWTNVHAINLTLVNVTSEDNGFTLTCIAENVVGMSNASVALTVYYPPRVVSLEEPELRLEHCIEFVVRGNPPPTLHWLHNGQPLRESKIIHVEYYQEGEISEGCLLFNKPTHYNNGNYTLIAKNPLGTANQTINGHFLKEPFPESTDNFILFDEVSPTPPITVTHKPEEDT
T1 sequence (Q16620 32-430 limits assumed): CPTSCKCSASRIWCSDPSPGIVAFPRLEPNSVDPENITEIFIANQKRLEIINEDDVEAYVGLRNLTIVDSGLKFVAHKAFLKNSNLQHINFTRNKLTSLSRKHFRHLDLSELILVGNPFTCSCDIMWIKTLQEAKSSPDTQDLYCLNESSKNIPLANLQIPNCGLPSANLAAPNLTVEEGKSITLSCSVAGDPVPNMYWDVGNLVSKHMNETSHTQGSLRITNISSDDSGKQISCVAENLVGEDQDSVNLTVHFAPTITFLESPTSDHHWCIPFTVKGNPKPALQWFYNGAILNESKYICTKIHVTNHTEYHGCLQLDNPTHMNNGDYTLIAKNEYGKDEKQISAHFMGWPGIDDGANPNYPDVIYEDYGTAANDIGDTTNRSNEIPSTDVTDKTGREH

As to “MAAFMDNPFEFNPED-C-KLH: 多肽MAAFMDNPFEFNPED-C-KLH (SEQ ID NO:18; 钥孔血蓝蛋白(KLH)) (not fully specified (C-terminus); also: KLH carrier conjugated via C-terminal Cys)”, the “binding of immunised mouse serum” value in experiment [1], in experiment [2] and in experiment [3] was “没有明显结合” each time. Besides, the “Human-TrkA/Human-NGF binding signal (OD450) versus blank serum” value is reported as “显著性降低” in experiment [4] (immunised rabbit serum diluted 1:2) and “显著性降低” in experiment [4] (immunised rabbit serum, no dilution stated).
